Assay results published in US20220332804A1 (CSL INNOVATION, published 2022).

Experiments:
Experiment in all cases: SPR, mAb captured, C2 mutant analyte;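 note: Anti-C2 mAbs captured on goat anti-human IgG Biacore CM5 chips, alanine or serine C2 surface mutants flowed over at 37 °C, double-referenced sensorgrams fitted to a 1:1 binding model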
human C2 F689A = molecular target: T1, human C2 F689A (human, UniProt P06681 21-752)
T1 sequence: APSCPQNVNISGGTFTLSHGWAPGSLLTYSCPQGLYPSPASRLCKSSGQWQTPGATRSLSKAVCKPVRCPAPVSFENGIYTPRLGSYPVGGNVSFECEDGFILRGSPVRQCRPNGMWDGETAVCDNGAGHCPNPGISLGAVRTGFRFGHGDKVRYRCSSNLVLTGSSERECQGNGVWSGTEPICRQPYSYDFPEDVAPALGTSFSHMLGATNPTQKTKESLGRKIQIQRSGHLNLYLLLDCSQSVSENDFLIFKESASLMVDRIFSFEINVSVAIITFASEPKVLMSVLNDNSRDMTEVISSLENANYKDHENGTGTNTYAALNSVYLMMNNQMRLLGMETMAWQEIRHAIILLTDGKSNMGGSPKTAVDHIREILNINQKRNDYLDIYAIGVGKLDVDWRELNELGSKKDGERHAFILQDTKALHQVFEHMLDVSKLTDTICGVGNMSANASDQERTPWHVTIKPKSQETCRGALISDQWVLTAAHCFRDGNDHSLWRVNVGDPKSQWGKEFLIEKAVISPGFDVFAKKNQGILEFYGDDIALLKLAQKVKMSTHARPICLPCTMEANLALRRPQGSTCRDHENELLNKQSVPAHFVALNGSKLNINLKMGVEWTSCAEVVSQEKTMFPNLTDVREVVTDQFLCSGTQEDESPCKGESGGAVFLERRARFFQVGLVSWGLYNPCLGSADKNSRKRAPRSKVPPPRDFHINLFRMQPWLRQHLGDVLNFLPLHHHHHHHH

human C2 Q447A = molecular target: T2, human C2 Q447A (human, UniProt P06681 21-752)
T2 sequence: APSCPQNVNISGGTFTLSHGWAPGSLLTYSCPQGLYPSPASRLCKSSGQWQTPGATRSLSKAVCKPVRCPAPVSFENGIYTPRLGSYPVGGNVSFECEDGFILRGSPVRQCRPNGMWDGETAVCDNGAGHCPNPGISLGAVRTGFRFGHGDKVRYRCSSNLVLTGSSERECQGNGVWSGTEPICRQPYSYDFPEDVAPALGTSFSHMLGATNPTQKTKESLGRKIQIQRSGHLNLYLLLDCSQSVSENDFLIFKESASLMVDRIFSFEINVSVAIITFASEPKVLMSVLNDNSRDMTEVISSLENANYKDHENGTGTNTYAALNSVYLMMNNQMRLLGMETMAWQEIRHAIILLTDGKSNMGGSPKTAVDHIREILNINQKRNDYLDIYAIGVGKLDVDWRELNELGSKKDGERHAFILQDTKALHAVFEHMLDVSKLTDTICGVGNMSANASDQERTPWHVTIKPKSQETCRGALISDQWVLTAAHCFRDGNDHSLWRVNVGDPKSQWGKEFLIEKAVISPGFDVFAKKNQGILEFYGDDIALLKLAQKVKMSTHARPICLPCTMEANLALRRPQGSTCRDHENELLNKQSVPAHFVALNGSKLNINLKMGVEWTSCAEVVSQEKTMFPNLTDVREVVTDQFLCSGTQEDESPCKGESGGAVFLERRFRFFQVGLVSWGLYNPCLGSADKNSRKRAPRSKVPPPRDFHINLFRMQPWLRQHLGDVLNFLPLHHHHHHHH

human C2 I320A = molecular target: T3, human C2 I320A (human, UniProt P06681 21-752)
T3 sequence: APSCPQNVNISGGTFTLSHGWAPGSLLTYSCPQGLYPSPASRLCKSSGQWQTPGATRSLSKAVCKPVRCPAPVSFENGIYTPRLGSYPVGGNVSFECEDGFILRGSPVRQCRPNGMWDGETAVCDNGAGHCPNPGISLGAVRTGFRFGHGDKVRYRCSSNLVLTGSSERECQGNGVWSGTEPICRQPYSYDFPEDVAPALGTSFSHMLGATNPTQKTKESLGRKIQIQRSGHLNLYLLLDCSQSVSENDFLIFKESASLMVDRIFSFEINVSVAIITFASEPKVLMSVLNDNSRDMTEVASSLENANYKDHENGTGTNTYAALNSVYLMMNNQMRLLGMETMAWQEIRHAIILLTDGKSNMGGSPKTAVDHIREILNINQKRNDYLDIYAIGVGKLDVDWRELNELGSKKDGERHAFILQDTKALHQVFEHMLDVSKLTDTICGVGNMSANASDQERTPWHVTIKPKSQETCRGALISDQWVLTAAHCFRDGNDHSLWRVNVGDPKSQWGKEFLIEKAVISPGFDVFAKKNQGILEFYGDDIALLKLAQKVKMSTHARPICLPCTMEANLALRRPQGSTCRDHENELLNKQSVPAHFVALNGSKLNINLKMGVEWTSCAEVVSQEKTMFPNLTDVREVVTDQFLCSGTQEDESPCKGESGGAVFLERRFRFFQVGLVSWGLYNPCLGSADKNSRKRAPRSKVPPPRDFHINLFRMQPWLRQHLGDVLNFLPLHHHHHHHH

human C2 T317A = molecular target: T4, human C2 T317A (human, UniProt P06681 21-752)
T4 sequence: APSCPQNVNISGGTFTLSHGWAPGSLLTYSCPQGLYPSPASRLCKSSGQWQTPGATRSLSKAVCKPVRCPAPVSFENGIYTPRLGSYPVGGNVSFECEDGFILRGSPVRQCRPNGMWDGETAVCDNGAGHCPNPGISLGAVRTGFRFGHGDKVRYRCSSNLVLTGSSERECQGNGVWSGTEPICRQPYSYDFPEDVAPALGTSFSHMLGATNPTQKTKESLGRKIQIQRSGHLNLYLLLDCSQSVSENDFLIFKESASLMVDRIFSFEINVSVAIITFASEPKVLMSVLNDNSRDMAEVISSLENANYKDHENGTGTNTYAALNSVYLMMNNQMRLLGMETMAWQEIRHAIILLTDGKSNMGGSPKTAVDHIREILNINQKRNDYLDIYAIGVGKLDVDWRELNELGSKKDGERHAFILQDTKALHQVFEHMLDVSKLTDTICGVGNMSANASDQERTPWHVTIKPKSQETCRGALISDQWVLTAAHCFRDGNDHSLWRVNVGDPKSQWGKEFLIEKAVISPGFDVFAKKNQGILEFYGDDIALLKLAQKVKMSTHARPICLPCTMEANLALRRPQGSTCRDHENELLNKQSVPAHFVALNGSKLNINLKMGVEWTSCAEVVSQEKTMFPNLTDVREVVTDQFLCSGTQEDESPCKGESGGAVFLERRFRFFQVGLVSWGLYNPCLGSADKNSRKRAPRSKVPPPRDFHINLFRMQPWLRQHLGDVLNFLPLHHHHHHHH

Kd (human C2 F689A): 36.5 nM
Kd (human C2 Q447A): 133 nM
binding result (human C2 I320A): no binding
Kd (human C2 T317A): 27.9 nM
B1: RF16-214 (antibody, V domains shown)
VH: EVQLLESGGGLVQPGGSLRLSCAASGFTFSWYQMMWVRQAPGKGLEWVSRIYPSGGGTAYADSVKGRFTISRDNSKNTLYLQMNSLRAEDTAVYYCARDAGYGDNWGQGTLVTVSS
VL: QSALTQPPSVSVSPGQTASITCSGDKLGEKYASWYQQKAGQSPVMVIYQDRKRPSGIPERFSGSNSGNTATLTISGTQAMDEADYYCQAWDTRAVVFGGGTKLTVLG
